# Measurements taken from the Immune Epitope Database (IEDB).
# pKd: −log10 of the molar value.
# Columns and labels:
# HLA-C*15:02 = assay: IEDB peptide-MHC binding, purified MHC/direct/fluorescence; filed as Kd, often an IC50 or EC50 that approximates it; ≥ and ≤ were set here for values at or beyond the usual limits of such assays; details: source organism: Salmonella enterica subsp. enterica serovar Typhi str. CT18
# HLA-B*48:01 = assay: IEDB peptide-MHC binding, purified MHC/competitive/fluorescence; filed as Kd, often an IC50 or EC50 that approximates it; ≥ and ≤ were set here for values at or beyond the usual limits of such assays; details: source organism: Salmonella enterica subsp. enterica serovar Typhi
# HLA-A*29:02 = assay: as above; details: source organism: Salmonella enterica subsp. enterica serovar Typhi
# HLA-A*02:03 = assay: as above; details: source organism: Salmonella enterica subsp. enterica serovar Typhi
# HLA-A*26:01 = assay: as above; details: source organism: Salmonella enterica subsp. enterica serovar Typhi
# HLA-B*15:01 = assay: as above; details: source organism: Salmonella enterica subsp. enterica serovar Typhi
# HLA-A*01:01 = assay: as above; details: source organism: Salmonella enterica subsp. enterica serovar Typhi
# HLA-B*40:01 = assay: as above; details: source organism: Salmonella enterica subsp. enterica serovar Typhi
# HLA-B*08:01 = assay: as above; details: source organism: Salmonella enterica subsp. enterica serovar Typhi
sequence,measurement,setting,value
SVIDHIHYM,pKd,HLA-C*15:02,7.02
same,pKd,HLA-B*48:01,≤ 4.70
same,pKd,HLA-A*29:02,8.92
same,pKd,HLA-A*02:03,8.51
same,pKd,HLA-A*26:01,9.55
same,pKd,HLA-B*15:01,6.84
same,pKd,HLA-A*01:01,≤ 4.70
same,pKd,HLA-B*40:01,≤ 4.70
same,pKd,HLA-B*08:01,≤ 4.70
